The target of this data set is T1, CopR (CopRHis6) (Lactobacillus plantarum CAUH2, UniProt F9UU50 1-142).
T1 sequence: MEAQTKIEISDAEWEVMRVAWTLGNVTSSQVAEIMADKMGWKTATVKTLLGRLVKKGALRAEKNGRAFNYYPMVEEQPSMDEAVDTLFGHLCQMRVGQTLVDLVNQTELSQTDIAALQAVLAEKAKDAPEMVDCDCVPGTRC
Briefly: EMSA; no Cu2+ added; 2.5 ug CopRHis6, 20 fmol probe; 20 uL: 1x LightShift binding buffer, 50 ng/uL poly(dI-dC), 2.5% glycerol, 0.05% NP-40, 5 mM MgCl2, 20 fmol probe, 2.5 ug CopRHis6; pH, salt and temperature not. The conditions noted are these: protein: recombinant; tags: C-terminal His6; chain copies: 2; label: 3' biotin; blunt. (In general: A gel shift assay detects complexes by their altered migration in electrophoresis.)

The source of these data is PMC5651008, “The Copper Homeostasis Transcription Factor CopR Is Involved in H2O2 Stress in Lactobacillus plantarum CAUH2”.

B1: copB promoter probe (EMSA copB-F/-R) (dsDNA)
DNA 1: GTGTTTTTCTTGACTTTTATCGTCTACAATTGTAAACTTTAGCCATAAATTACAGATGTAGACAAT
DNA 2: ATTGTCTACATCTGTAATTTATGGCTAAAGTTTACAATTGTAGACGATAAAAGTCAAGAAAAACAC
For B1, the binding result is listed as “binds”.
